The text below walks through data of the supplement of paper PMC9112550, “Optimization of the antimicrobial peptide Bac7 by deep mutational scanning” (BMC Biology, 2022).

In this data set the test system is Escherichia coli TOP10. Briefly: shrunken log2 fold change of peptide-encoding DNA abundance (4.5 h post-induction vs induction); higher = less antimicrobial activity (less host growth inhibition). Conditions: time post-induction: 4.5 h; library: site-saturation at positions 5, 18, 19, 20.
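Note: peptides expressed intracellularly from a pBAD plasmid library in pooled LB shake-flask culture, induced with 0.3% L-arabinose, DNA abundance read by NGS, three biological replicates, DESeq2 with apeglm shrinkage.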

Turning to RRIRWRPPRLPRPRPRPQTWPRP, the “shrunken log2 fold change” value came to 0.223.
In the case of RRIRARPPRLPRPRPRPGCIPRP, the “shrunken log2 fold change” value amounted to 0.315.
As for RRIRFRPPRLPRPRPRPYVHPRP, the “shrunken log2 fold change” value was -1.75.
To RRIRPRPPRLPRPRPRPPPNPRP belongs 0.743; to RRIRERPPRLPRPRPRPEQYPRP, -0.14.
To RRIRARPPRLPRPRPRPMIMPRP belongs -0.0807; to RRIRMRPPRLPRPRPRPMNEPRP, -0.101.
Turning to RRIRLRPPRLPRPRPRPGDKPRP, the “shrunken log2 fold change” value was found to be 0.00262.
Turning to RRIRERPPRLPRPRPRPPAHPRP, the “shrunken log2 fold change” value is 0.269.
For the sequence RRIRHRPPRLPRPRPRPIQNPRP, the “shrunken log2 fold change” value was -0.252.
Turning to RRIRHRPPRLPRPRPRPDSQPRP, the “shrunken log2 fold change” value was -0.194.
Take RRIRCRPPRLPRPRPRPKLYPRP: the “shrunken log2 fold change” value is -0.38.
As for RRIRYRPPRLPRPRPRPSGPPRP, the “shrunken log2 fold change” value is -0.395.
To RRIRVRPPRLPRPRPRPLSDPRP belongs 0.0263.
With RRIRTRPPRLPRPRPRPICRPRP, the “shrunken log2 fold change” value was 0.0229.
The figure for RRIRWRPPRLPRPRPRPQIWPRP is 0.0603; for RRIRDRPPRLPRPRPRPVCHPRP it is -0.0164; for RRIRSRPPRLPRPRPRPSVWPRP it is 0.0903.
With RRIRFRPPRLPRPRPRPYHSPRP, the “shrunken log2 fold change” value was -0.0452.
RRIRLRPPRLPRPRPRPAENPRP: the “shrunken log2 fold change” value came to 0.0583.
To RRIRKRPPRLPRPRPRPWHPPRP belongs 0.143; to RRIRKRPPRLPRPRPRPPPDPRP, 0.906.
For the sequence RRIRMRPPRLPRPRPRPHALPRP, the “shrunken log2 fold change” value is -0.541.
Regarding RRIRQRPPRLPRPRPRPQAWPRP, the “shrunken log2 fold change” value is 0.0305.
The figure for RRIRARPPRLPRPRPRPHRAPRP is 0.216; for RRIRMRPPRLPRPRPRPDALPRP it is 0.438; for RRIRRRPPRLPRPRPRPHHRPRP it is 0.0911.
On to RRIRVRPPRLPRPRPRPRDEPRP, for which the “shrunken log2 fold change” value came to 2.79.
Take RRIRFRPPRLPRPRPRPYWTPRP: the “shrunken log2 fold change” value is -0.651.
The figure for RRIRERPPRLPRPRPRPHVNPRP is -1.04.
